Assay results: patent US20170114420

Columns and labels:
Experiment in all cases: ELONA
[1] = test system: Norovirus GII.4 (Grimsby) VLP, capsid protein VP1 (Norovirus GII.4 Grimsby); settings: 1 uM aptamer, RT
[2] = test system: Norovirus GI.8 VLP, capsid protein VP1 (Norovirus GI.8); settings: 1 uM aptamer, RT
[3] = test system: Norovirus GI.4 VLP, capsid protein VP1 (Norovirus GI.4); settings: 1 uM aptamer, RT
[4] = test system: Norovirus GII.4 (Houston) VLP, capsid protein VP1 (Norovirus GII.4 Houston); settings: 1 uM aptamer, RT
[5] = test system: Norovirus GI.7 VLP, capsid protein VP1 (Norovirus GI.7); settings: 1 uM aptamer, RT
[6] = test system: Norovirus GII.3 VLP, capsid protein VP1 (Norovirus GII.3); settings: 1 uM aptamer, RT
[7] = test system: Norovirus GI.6 VLP, capsid protein VP1 (Norovirus GI.6); settings: 1 uM aptamer, RT
[8] = test system: Norovirus GII.17 VLP, capsid protein VP1 (Norovirus GII.17); settings: 1 uM aptamer, RT
[9] = test system: Norovirus GII.12 VLP, capsid protein VP1 (Norovirus GII.12); settings: 1 uM aptamer, RT
[10] = test system: Norovirus GII.6 VLP, capsid protein VP1 (Norovirus GII.6); settings: 1 uM aptamer, RT
[11] = test system: Norovirus GII.1 VLP, capsid protein VP1 (Norovirus GII.1); settings: 1 uM aptamer, RT
[12] = test system: Norovirus GII.7 VLP, capsid protein VP1 (Norovirus GII.7); settings: 1 uM aptamer, RT
[13] = test system: Norovirus GII.4 (Sydney) VLP, heat-denatured (80 C, 5 min) (Norovirus GII.4 Sydney); settings: VLP denatured 80 C 5 min

| Sequence | binding signal [1] [T/N ratio] | binding signal [2] [T/N ratio] | binding signal [3] [T/N ratio] | binding signal [4] [T/N ratio] | binding signal [5] [T/N ratio] | binding signal [6] [T/N ratio] | binding signal [7] [T/N ratio] | binding signal [8] [T/N ratio] | binding signal [9] [T/N ratio] | binding signal [10] [T/N ratio] | binding signal [11] [T/N ratio] | binding signal [12] [T/N ratio] | binding signal (VLP/no VLP ratio) [1] | binding signal (VLP/no VLP ratio) [2] | binding signal (VLP/no VLP ratio) [3] | binding signal (VLP/no VLP ratio) [4] | binding signal (VLP/no VLP ratio) [5] | binding signal (VLP/no VLP ratio) [6] | binding signal (VLP/no VLP ratio) [7] | binding signal (VLP/no VLP ratio) [8] | also measured |
| --- | --- | --- | --- | --- | --- | --- | --- | --- | --- | --- | --- | --- | --- | --- | --- | --- | --- | --- | --- | --- | --- |
| AGTATACGTATTACCTGCAGCCACCAGTGTGTTGAGGTTTGAGCACACTGATAGAGTGTCACGATATCTCGGAGATCTTGC [SMV-19] | 9.6 | 1.7 | 1.7 | 12.5 | 10.3 | 1.7 | 3.7 | 3 | 1.5 | 1.8 | 7.1 | 4 |  |  |  |  |  |  |  |  |  |
| AGTATACGTATTACCTGCAGCCATCTGTGTGAAGACTATATGGCGCTCACATATTTCTTTCCGATATCTCGGAGATCTTGC [SMV-25] | 10.4 | 6.2 | 5.6 | 11 | 3.5 | 5.4 | 2.4 | 2 | 1.9 | 7.3 | 9.4 | 9.1 |  |  |  |  |  |  |  |  |  |
| AGTATACGTATTACCTGCAGCCCATGTTTTGTAGGTGTAATAGGTCATGTTAGGGTTTCTGCGATATCTCGGAGATCTTGC [SMV-21] | 6.4 | 4.6 | 4.3 | 11.3 | 8.1 | 11.8 | 3.8 | 12.2 | 6.6 | 3 | 8.6 | 13.5 |  |  |  |  |  |  |  |  |  |
| AGTATACGTATTACCTGCAGCTGACCGAGTGTCTGGTCATTTTCGATGTCTGTTGTTAGGCCGATATCTCGGAGATCTTGC [SMV-26] | 3.2 | 1.2 | 1.1 | 2.8 | 1.8 | 2.4 | 1.5 | 1.3 | 2.4 | 2.8 | 2.1 | 2.8 |  |  |  |  |  |  |  |  |  |
| AGTATACGTATTACCTGCAGCTGGGAAGAGGTCCGGTAAATGCAGGGTCAGCCCGGAGAGCGATATCTCGGAGATCTTGC [M6-2] |  |  |  |  |  |  |  |  |  |  |  |  | 11.5 | 4.55 | 3.36 | 13 | 7.56 | 3.16 | 2.75 | 5.24 | binding signal (VLP/no VLP ratio) [9]: 5.55; binding signal (% of untreated VLP signal) [13]: 1.98; binding signal (VLP/no VLP ratio) [10]: 4.4; binding signal (VLP/no VLP ratio) [11]: 4.52; binding signal (VLP/no VLP ratio) [12]: 8.02 |
| AGTATACGTATTACCTGCAGCTGTTTATGGGGATAAACGTATCTAATTCGTGTACTAATCACGATATCTCGGAGATCTTGC [M1] |  |  |  |  |  |  |  |  |  |  |  |  | 7.59 | 2.61 | 3.17 | 10.4 | 7.32 | 2.94 | 1.98 | 3.94 | binding signal (VLP/no VLP ratio) [9]: 4.47; binding signal (VLP/no VLP ratio) [10]: 2.38; binding signal (VLP/no VLP ratio) [11]: 3.59; binding signal (VLP/no VLP ratio) [12]: 7.47 |
